Data published in patent CN114790245A (CHENGDU KANGHONG BIOLOGICAL TECH CO LTD, dated 2022).
Residue numbers refer to the chain shown, from its start.

B1: KH20 (antibody, V domains shown)
VH: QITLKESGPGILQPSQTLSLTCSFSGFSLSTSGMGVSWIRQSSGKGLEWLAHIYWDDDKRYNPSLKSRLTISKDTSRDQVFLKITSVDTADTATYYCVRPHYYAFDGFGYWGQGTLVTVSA
VL: DIKMTQSPSSMSASPGERVTITCKASQDINSYLSWFQQKSGKFPKTLIYRANRLVDGVASRFSGSGSGQDYSLTISSLDYEDMGIYYCVQYDEFPLTFGAGTKLELK
B2: KH19 (antibody, V domains shown)
VH: EVQLQQSGAEVVRPGASVKLSCKPSGFNIKDYYMFWLRQRPDQGLEWIGRIDPENGNTVYDPRFQDRASITAVTSSNTAFLQVNSLTSEDTAVYYCARAGSIPSYWGQGTLVTVSA
VL: DIQMTQSPSSLSASLGDKITITCKASQDINKYIAWYQHKPGKGPRLLIHYTSSLHQDIPSRFSGSGSGRDYSFSISNLEPEDFAIYYCLQYDDLWTFGGGTKVEIK
B3: KH21 (antibody, V domains shown)
VH: EVQLQQSGAELVKPGASVKLSCTGSGFNIKDIYMFWVKQRPEQGLEWIGRIDPENGNIKYDPKFQGKATITAETSSNTVYLQLNSLTSEDTAVYYCSRGGGLFAYWGQGTLVTVSA
VL: DIQMTQSPSSLSASLGGKVTITCKASQDINKYIAWYQHKPGKGPRLLIHYTSTLQPGIPSRFSGSGSGSDYSFSISTLEPEDIATYYCLQYDDLWTFGGGTKLEIK
B4: KH18 (antibody, human IgG4 S228P, kappa, V domains shown)
VH: QVQLLESGAELVRPGSSVKISCKASGYAFTNYWMHWVKQRPGQGLEWIGAIYPGDSDTSYNQKFKGKATLTADESSSTAYMQLSSLRSEDSAVYSCARERAYYRYDEDFDYWGQGTTVTVSS
VL: DIQMTQSPSSLSASVGDRVTITCSATSIINSNYFHWYQQKPGKAPKLLIYRTSNLASGVPSRFSGSGSGTDFTFTISSLQPEDIATYYCQQGSSLPRTFGGGTKLEIKR
B5: KH16 (antibody, human IgG4 S228P, kappa, V domains shown)
VH: EVQLVQSGAEVKKPGATVKISCKVSGYTFTNYWMHWVQQAPGKGLEWMGAIYPGDSDTSYNQKFKGRVTITADTSTDTAYMELSSLRSEDTAVYYCTRERAYYRYDEDFDYWGQGTLVTVSS
VL: B4 VL
B6: KH13 (antibody, human IgG1, kappa, V domains shown)
VH: QVQLVQSGAEVKKPGASVKVSCKASGYTFTNYWMHWVRQAPGQGLEWMGAIYPGDSDTSYNQKFKGRVTMTRDTSTSTVYMELSSLRSEDTAVYYCARERAYYRYDEDFDYWGQGTLVTVSS
VL: B4 VL
B7: KH09 (antibody, human IgG4 S228P, kappa, V domains shown)
VH: EVQLVESGGALVKPGGSLRLSCAASGFNIKDTYIFWVRQMPRKGLEWIGRIDPENDNTKYDPKIQGKATITADTSTDTAYMELSSLTSEDTAVYYCAKGGGLFAYWGQGTLVTVSS
VL: DIQMTQSPSAMSASVGDRVTITCEASHDINNYIAWYQQKPGKAPKLLIYYTSTLQSGVPSRFSGSGSGTDFTFTISSLQPEDIATYYCLQYDNLFTFGQGTKVEIKR
B8: KH11 (antibody, human IgG4 S228P, kappa)
heavy: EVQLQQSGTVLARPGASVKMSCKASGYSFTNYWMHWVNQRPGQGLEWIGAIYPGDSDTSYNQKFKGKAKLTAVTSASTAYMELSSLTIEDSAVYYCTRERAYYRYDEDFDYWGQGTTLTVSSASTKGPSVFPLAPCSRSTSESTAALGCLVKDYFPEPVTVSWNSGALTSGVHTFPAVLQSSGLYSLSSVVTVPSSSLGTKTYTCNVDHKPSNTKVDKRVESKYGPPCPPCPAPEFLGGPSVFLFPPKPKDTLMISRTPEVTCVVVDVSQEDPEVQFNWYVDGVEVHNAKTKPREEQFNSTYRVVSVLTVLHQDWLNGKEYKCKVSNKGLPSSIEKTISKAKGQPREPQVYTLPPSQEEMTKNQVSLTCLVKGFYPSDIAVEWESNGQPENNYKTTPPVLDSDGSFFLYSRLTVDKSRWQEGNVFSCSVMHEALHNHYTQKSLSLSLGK
light: EIVLTQSPTTMAASPGEKITITCSATSIINSNYFHWYQQKPGFSPKLLIYRTSNLASGVPARFSGSGSGTSYSLTIGTMEAEDVATYYCQQGSSLPRTFGGGTKLEIKRTVAAPSVFIFPPSDEQLKSGTASVVCLLNNFYPREAKVQWKVDNALQSGNSQESVTEQDSKDSTYSLSSTLTLSKADYEKHKVYACEVTHQGLSSPVTKSFNRGEC
B9: KH10 (antibody, human IgG1, kappa)
heavy: not shown
light: B8 light
B10: KH01 (antibody, human IgG4 S228P, kappa, V domains shown)
VH: EVQLHQSGAELVKPGASVRLSCTASGFNIKDTYIFWVKQRPEQGLEWIGRIDPENDNTKFDPKIQGKATLTADTSSNTAYLQLGSLTSEDSAIYYCAKGGGLFAYWGQGTLVSVSA
VL: DIQMTQSPSSLSASLGGKVTITCKASHDINKYIAWYQHKPGSGPRLLIHFTSTLQSDIPSRFSGSGSGRDYSFSISNLEPEDIATYYCLQYDNLFTFGGGTKLEIKR
B11: KH07 (antibody, human IgG4 S228P, kappa, V domains shown)
VH: B10 VH with H5Q, E42K, F60Y, G84S
VL: B7 VL with K42Q, A43P
B12: KH02 (antibody, human IgG4 S228P, kappa, V domains shown)
VH: B10 VH with H5Q, E42K, F60Y, G84S
VL: B10 VL with A13T, K24E, K31N, S42K, F50Y, D57G, R69K
B13: KH05 (antibody, human IgG4 S228P, kappa, V domains shown)
VH: B10 VH with H5Q, E42K, F60Y, G84S
VL: B7 VL with A10S, M11L, K42Q, A43P, D70E, F73L, S77N, I83F
B14: KH03 (antibody, human IgG4 S228P, kappa)
heavy: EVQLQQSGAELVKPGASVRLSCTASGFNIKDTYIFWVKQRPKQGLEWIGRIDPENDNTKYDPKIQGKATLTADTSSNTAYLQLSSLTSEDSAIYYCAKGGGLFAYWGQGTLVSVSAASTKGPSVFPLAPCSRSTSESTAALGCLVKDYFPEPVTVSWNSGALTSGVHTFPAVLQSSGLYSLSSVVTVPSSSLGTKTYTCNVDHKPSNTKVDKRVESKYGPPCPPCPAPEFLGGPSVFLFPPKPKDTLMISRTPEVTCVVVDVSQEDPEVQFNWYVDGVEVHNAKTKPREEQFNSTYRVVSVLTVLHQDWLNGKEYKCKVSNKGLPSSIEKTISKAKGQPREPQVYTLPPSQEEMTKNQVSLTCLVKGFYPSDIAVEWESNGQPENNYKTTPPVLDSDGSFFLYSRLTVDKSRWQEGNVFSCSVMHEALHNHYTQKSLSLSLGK
light: DIQMTQSPSAMSASVGDRVTITCEASHDINNYIAWYQQKPGKAPKLLIYYTSTLQSGVPSRFSGSGSGTEFTLTISNLQPEDFATYYCLQYDNLFTFGQGTKVEIKRTVAAPSVFIFPPSDEQLKSGTASVVCLLNNFYPREAKVQWKVDNALQSGNSQESVTEQDSKDSTYSLSSTLTLSKADYEKHKVYACEVTHQGLSSPVTKSFNRGEC
B15: KH04 (antibody, human IgG4 S228P, kappa)
heavy: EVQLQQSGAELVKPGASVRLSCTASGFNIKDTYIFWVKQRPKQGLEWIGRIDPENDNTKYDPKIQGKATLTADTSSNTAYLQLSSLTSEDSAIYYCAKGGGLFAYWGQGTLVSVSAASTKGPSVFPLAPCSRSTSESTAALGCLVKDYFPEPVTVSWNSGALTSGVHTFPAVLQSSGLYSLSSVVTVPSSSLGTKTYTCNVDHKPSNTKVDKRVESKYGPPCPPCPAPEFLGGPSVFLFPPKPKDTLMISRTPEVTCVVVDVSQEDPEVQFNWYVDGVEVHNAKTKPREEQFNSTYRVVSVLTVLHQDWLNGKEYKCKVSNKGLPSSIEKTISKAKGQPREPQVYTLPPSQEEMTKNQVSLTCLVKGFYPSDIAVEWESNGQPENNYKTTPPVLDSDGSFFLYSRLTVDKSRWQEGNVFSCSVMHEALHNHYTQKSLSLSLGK
light: B14 light with A10S, M11L
B16: KH12 (antibody, human IgG1, kappa, V domains shown)
VH: B6 VH
VL: EIVMTQSPPTLSLSPGERVTLSCSATSIINSNYFHWYQQKPGQAPRLLIYRTSNLASGIPARFSGSGSGTDFTLTISSLQPEDFAVYYCQQGSSLPRTFGGGTKLEIKR
B17: KH15 (antibody, human IgG4 S228P, kappa, V domains shown)
VH: B5 VH
VL: B16 VL
B18: KH14 (antibody, human IgG1, kappa, V domains shown)
VH: B6 VH
VL: EIVLTQSPAIMSASPGERVTMTCSATSIINSNYFHWYQQKPGTSPRRWIYRTSNLASGVPARFSGSGSGTDYSLTISSMEPEDAATYYCQQGSSLPRTFGGGTKLEIKR

Experiments:
[1] = target: T1, 血浆激肽释放酶(plasma kallikrein,PK) (human, UniProt P03952 20-638); assay: cell-based or functional assay
[2] = target: T1, 血浆激肽释放酶(plasma kallikrein,PK); assay: cell-based or functional assay; remark: listed apart in the source

T1 sequence (P03952 20-638 limits assumed): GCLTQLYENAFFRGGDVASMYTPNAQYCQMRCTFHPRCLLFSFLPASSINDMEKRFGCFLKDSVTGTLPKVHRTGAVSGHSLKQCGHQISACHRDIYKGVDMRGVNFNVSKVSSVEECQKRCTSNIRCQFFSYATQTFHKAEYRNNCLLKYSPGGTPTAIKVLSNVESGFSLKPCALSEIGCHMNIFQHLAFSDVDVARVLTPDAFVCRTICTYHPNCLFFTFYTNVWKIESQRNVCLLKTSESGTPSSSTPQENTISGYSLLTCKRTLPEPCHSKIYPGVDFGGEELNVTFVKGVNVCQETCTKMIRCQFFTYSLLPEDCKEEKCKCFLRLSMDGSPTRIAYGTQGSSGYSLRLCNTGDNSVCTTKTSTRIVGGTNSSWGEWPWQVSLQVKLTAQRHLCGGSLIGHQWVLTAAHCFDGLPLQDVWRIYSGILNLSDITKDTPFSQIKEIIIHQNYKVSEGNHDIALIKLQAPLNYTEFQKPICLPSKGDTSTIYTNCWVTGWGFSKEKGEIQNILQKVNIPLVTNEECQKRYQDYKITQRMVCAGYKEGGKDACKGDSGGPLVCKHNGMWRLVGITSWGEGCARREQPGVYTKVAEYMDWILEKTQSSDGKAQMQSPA

| Binder | IC50(nM), PK activity in human plasma activated with Factor XIIa (H-Pro-Phe-Arg-AMC) [1] | IC50(nM), PK enzyme activity on H-Pro-Phe-Arg-AMC (fluorescence) [2] |
| --- | --- | --- |
| B1 | 1.09 nM | 1.1 nM |
| B2 | 0.93 nM | 0.87 nM |
| B3 | 1.29 nM | 0.82 nM |
| B4 | 0.419 nM |  |
| B5 |  | 0.23 nM |
| B6 |  | 0.221 nM |
| B7 | 0.764 nM |  |
| B8 | 0.103 nM | 0.188 nM |
| B9 |  | 0.227 nM |
| B10 | 0.753 nM | 0.297 nM |
| B11 | 0.863 nM |  |
| B12 | 0.52 nM | 0.235 nM |
| B13 | 0.921 nM |  |
| B14 | 0.949 nM |  |
| B15 | 0.987 nM |  |
| B16 |  | 0.174 nM |
| B17 |  | 0.224 nM |
| B18 |  | 0.398 nM |
